Protein production data for 18 sequences are collected here from a protein production outcome set (Wang et al. 2014).

This data set can be described thus: label from the status in PepcDB records.
On to “MMNSRQRYKAFISYSHHDRKAAEWLHRSLESYRPPAGLRAGLGEASGNALKPIFRDRDELSAAADLSEAIRDALDRSDTLIILCSSHAATSRWVDKEVAHFLTLRGADHMISVIAPGAPEGLPLMELLPPALRAALPEGVEPLAVDLRQDADGRRLAKLKIAARLLGVSLDRLVQRDARRRLRLMTAVSGVALAITVGMGAMTVVTLKSRQIAREQRDETEALVAYMLGDLREQLEPVGRLDLLDGVSAKVLAYYAKAQSDQLDDKALAQRAKAQTLLGTIREQRGDLEGAQDAFAQAAATTHALVERSPNDGDRVFDEAQNVFWLAYMGWRRGEIAQAERGFKRYAELAQRLVVIDPNRADWRIEVAYAKNNLGTLLFEEGRAGEALASFRAAFSIFEAERLRAPTDKQRLMDSANARAWVADCLLLMAKPREAFTERKAAAELLAKGEAAFPADQRLAAKSVATQLALARLELDLGRVAEARSRSKAAMNRLRELAALDPTNTRWREYVLIGELDFIDFAIWSGQPVQARSLHAAALANLARTRKGQEGGSWRPDLDGRLARQAVVLALSVGDVATAKRAAKSLVEALETSKVDRETAFGRTDLLGLAQLVDGKPSAAIKALSPRRNALPPASLDVLARAYAAVGERETAARIVRDLKQEGYAHPGFVAFWRESPAGGPPQSGVLK”, for which the protein production entry is listed as “failed”.

As for “MKKFLAIITLCLLFFSFTIGCERASLNRIGKDVYYMQIKGEGTIEKVDGRNLRNYTLPAYDEDGVKKQITFRSTKKENDHKLNKYAFLRLYVDQDDNSKNEISSIEVKSYEEIQKADLPEKVKDKFTIKLEHHHHHH”, the protein production result is listed as “not failed”.

For “ELCNALADKISLKDRFGFSLYIALFDKVSSLGSGSDHVMDAISQCEQYAKEQGAQERNAPWRLFFRKEVFTPWHSPSEDNVATNLIYQQVVRGVKFGEYRCEKEDDLAELASQQYFVDYGSEMILERLLNLVPTYIPDREITPLKTLEKWAQLAIAAHKKGIYAQRRTDAQKVKEDVVSYARFKWPLLFSRFYEAYKFSGPSLPKNDVIVAVNWTGVYFVDEQEQVLLELSFPEIMAVSSSRECRVWLSLGCSDLGCAAPHSGWAGLTPAGPCSPCWSCRGAKTTAPSFTLATIKGDEYTFTSSNAEDIRDLVVTFLEGLRKRSKYVVALQDNPNPAGEESGFLSFAKGDLIILDHDTGEQVMNSGWANGINERTKQRGDFPTDCVYVMPTVTMPPREIVALVTMTPDQRQDVVRLLQLRTAEPEVRAKPYTLEEFSYDYFRPPPKHTLSRVMVSKARGKDRLWSHTREPLKQA”, the protein production result was “failed”.

Turning to “MADSRPRLVTGSPEGYPGHVDGRLRDARLNNPKGLTVDDRGNIYVADTVNNAIRKISEAGVTTIAGGKMVRGGGHVDGPSEDAKFSNDFDVVYLGSSCSLLVIDRGNQAIREIQLHFDDCADQYGSGFPLGIAVLVAAVFFGYMLALLQRRLSSIVSYHTDQEVFEAVPDQDPIKPVRPPLILTGDEQEKQEESFLGTLQIFISNAWVFSVELFSGMFPGLRKKQTVGLNFNHQETKHSAFSTTSWPIQESFVIHNKDEPPPVESRNATPGKIYPFMSKDATEKMQQLRQSRALYRSLDAEFLQEQQQEKHQQYHHRHHSTIPYTLYEQSSEKTNEIVFGPGQEQDQMNTHQNIHHRAHQFVSYPYGYYS”, the protein production entry was “failed”.

Consider “MYYVIFAQDIPNTLEKRLAVREQHLARLKQLQAENRLLTAGPNPAIDDENPSEAGFTGSTVIAQFENLQAAKDWAAQDPYVEAGVYADVIVKPFKKVF”, for which the protein production entry was “not failed”.

Regarding “MKNGERARAGHGSPAAPGPTAGPGPAPAPGPTVVGREAEIAEIRSRIAADRSHSSVLIVEGDPGAGKSVLLDLAVRLTRGTGQRVLRAVGSESEASLAFAGLHQMLRPVLDDLGGLPARQRSALRTALGLAEDAEDAADTPDALLVGLAVLTLVSDLSEPAPLLVVVDDAQWIDRASLDVLSFLARRMAGEPVTLLMGVRAAAVLPGFDKGYERLEIGPLSGDAANRLLDEQPKRPTGRTRARILREAAGNPLALVELARATADREPEGSGVEGPLPVTDRLEGIFARHVRHLPEATRRALLLLAAADAADAPAAARGLPEAADTVWAPAERAGLVRQDGTGVSFRHPLVRSAVYHAAPFEQRRRAHLALARQLGEEPDRRAWHLAAAAVRPDEQVSAALRETAGRARRRGGHAAAAAALERAAELSPHRADQARLLADAADTAVFTGQLGWVEHLAAGARERSDDPALIGRAALATGRLLTLGPHHTAAFALLSRVADEAAATRSPRLLDALAAAAVVRYYSGEESQRQRIEALLADVPDSAAGGALRAWVLAVSDPSGAGASLAPALPRLIAAAKGEAGSLTALAVVAWLLDRTPLAARTFDEAFGRWQAHGPLPAGLACAAGWAYLEQGRWADARSVAAEIAEVASGAGLDHAEACARTLDATVLALLGEPAEARGSAERALALVAPLESRSVAVLARRALGLAAVAEGDYDSAYAQFRAAFTEDGDLVHYHVSPTVLAELAAAAVRRGHREPAARLLERSARHLGPGMSARLFLLVERGRALLAEPERAERHFRAALAGEAGEQWPFERAQTRLDYGEWLRRQRRVAEARPLLTGALDTFRRLGARPWIDRAKAELRAAGIEADAAAPGALTELSPQQQQIVRLAAHGLTNREIGERLFLSPRTVGSHLYRVFPKLGITARAQLRDLLDDALQATGSAQ”, the protein production entry was “failed”.

For “MVQHHNLYELSPMDTGWTICVMVLRINKKFLNPNAFELRFVLDDEWDTQIEATIRPRFSPFYFDRIEKNQWKTISTFLVRPNCEPIRTTPHEFRILFMDHTIITSSTS”, the protein production entry was “failed”.

In the case of “MVKPLRLNDRHQQILRATVQHYIATAEPVGSHTLAQEYQFAVSSATIRNALGQLEKAGLLYQPHVSAGRVPSDSGYRIYVDNLLTWSDRQSRTVKQRLENEINGDNWHFEALIQRMGQILAGLSGYIALITFPQTETVQLRHLQLMLLPSHQILIILVTDSYHTHSATLDLPAAMEAKEEGELEQELAIFSNFLNAQLRGKNLSELSHLNWQELDQKFSIYADFLKGLQQQIKPLLQRRMAGPLVVHGVSKVIQQPEFSQLEQVQMLLSLLEQEQDKLFSLLFDPDNYGDNLANLGQEMNLLTGETMPKTRPVVTIRIGAENPLESMHPCTLVSAIYRQQEIPMGSVSILGPTRMVYQQTIPLVEQAAECLSEALSKN”, the protein production result was “failed”.

With “DDDIEQLLEFMHQLPAFANMTMSVRRELCSVMIFEVVEQAGAIILEDGQELDSWYVILNGTVEISHPDGKVENLFMGNSFGITPTLDKQYMHGIVRTKVDDCQFVCIAQQDYWRILNHVEK”, the protein production result was “not failed”.

With “RVGIIVAAHGNSTASSMVEVATELLGSTPIAAVDMPLTVSPSDILECVAEKMKQVDEGEGVLMLVDMGSLAMLESRLEEKTGISIKTISNVTTSMVLDAVRKVNYLNLNLHAIYQSVTKDFIELWERQPAASGKK”, the protein production result is “failed”.

In the case of “MFRSSRRQAAFDFDLLMPETPARRTARAANPDRDVVDAEFVTIKENRVRQPGNDNRGAARRQMVKPSVTIGALGLAFIGWLDRRLSRLSADAYSALVAGLAIFVFVCSGGLSVVVPETSAVAASVNPLAISHVTITPQEAGGMDILLINGIVENNGGNLEEVPALRADLFAAKGQLVASMVIEPPVKEMQPGFSHGFSAKLRHPGGKTPEIKLSFVEAGASAR”, the protein production entry is listed as “failed”.

As for “MPKHEFSVDMTCGGCAEAVSRVLNKLGGVKYDIDLPNKKVCIESEHSMDTLLATLKKTGKTVSYLGLE”, the protein production entry is “not failed”.

Consider “MDCSESCHLKEPSKDRAFTHKPVVDEFKKSVHGAGHAPGATKDFHGGNRLEEETGQQNPSCRRCHSNTPYIKDANLERFKQELHHTETECGTCHQGETWRNQFSGHILRRLVGKNYDKMEANAMCVDCHGDHEAMAKVEIQDPETRERKKASFRFAHATDSYAKTLHGRLLAVNDESGASCIDCHAPDGFRHGILRDESKDSPTHPDRLGETCSQAGCHGYAKSPLNLGFLNTDLHDLDFLRMEDLSFALDFSRLDSAWYAAAWVLGPLGLIFLTSSLLSPLSRSRRAPVTEVVGYDHFQRVMIGGGSAKDGLWRRIRGRLVGGTPAVPVPAPLVEPGAPITSLTILFGSQTGNGEGVAADLEARLKAWGYSVELADMADYDPREIVNERLLFVIVSTHGEGQPPLPAEKLHGYLYAETAPRLEHLKFAVFALGDSSYKHFCKAGKDFDAFLQRLGASRVLDRVDADADFEEAAAAWIDAVLGCCRAIIGDTGIERPLEAEPVDHAVAKSGYGKTHPYPAAVLRNVNLNGEGSAKETRHIEIDLGDSGLSYEPGDALGVYPKNDPAYVEALLAALQADGYSEVTLGKETLSLREAFYKHLDITGLSRVLVEKYAELCDSRVLAGLLADPDPARLEGYLWGRQIIDLVEDFPIQGISPQTFVNVLRRLPPRLYSIASSMKAHPGQVHLTVGAVRYHAHGRNREGVCSTYLAGRIGPGERLAIFVQPNKHFRLPEDPETPLIMVGPGTGIAPFRGFVEEREVTGARGRNWLYFGDQRRATDYLYREEWEDKLRRGVLTRLDLAFSRDQERKVYVQTRMLENAREMYAWLEEGACFYVCGDASRMAQDVHRALLAIVMQEGGRTQEQAEEYLEAMAASRRYLRDVY”, for which the protein production entry is given as “failed”.

Take “MTTPTPIRMLILEDSEDDLLLLLREVRRGGIDPAYERADSAAGLRRALDAGEWDVIVSDYNMPQFGALPALDIVKERGLDVPFIIVSGKIGEDLAVAAMKAGAHDYLMKGNLSRLVPAIERELREADERRRRRQAEEAMHAQFNQISTIFDSLNALVYVVDMNSYELLYLNKFGAQLFGEAWEGRTCHDVLHGGRSTPCDFCTNDKLIMDGKALPPYIWEYQNSISSRWYQCIDKAIRWTDGRMVRMEIAIDITERKEMERMKDEMISAVSHEMHTPLTAMMGFTEFLLENEVDRDLQKNYLKTIYRETERLNELITNFLQLQRLKASMVKFRITPVAVGLLVADVVSLYAAASKKHRIVVECPPDLPPVRGNEEQLYQAISNLVSNAIKYSPDGGDVTIGASAAADIVTLWVRDQGIGISPEFQEKIFERFFRVDNSDRRKVGGAGLGLTLVREIVATHGGRSWVESSPGKGSTFFISLPAMT”: the protein production result is “failed”.

As to “MPVAKKYFEIRWHGRAGQGAKSASQMLAEAALEAGKYVQAFPEYGAERTGAPMRAFNRIGDEYIRVRSAVENPDVVVVIDETLLSPAIVEGLSEDGILLVNTVKDFEFVRKKTGFNGKICVVDATDIALQEIKRGIPNTPMLGALVRVTGIVPLEAIEKRIEKMFGKKFPQEVIDANKRALRRGYEEVKCSE”, the protein production result is listed as “not failed”.

For “MGHHHHHHSHMANGTAGTKVALRKTKQAAEKISADKISKEALLECADLLSSALTEPVPNSQLVDTGHQLLDYCSGYVDCIPQTRNKFAFREAVSKLELSLQELQVSSAAAGVPGTNPVLNNLLSCVQEISDVVQR”, the protein production result is given as “failed”.

With “AAQEKVVKLKIVQTSDVHGNYYPYNFITRKDWQGSLARIYAFVEKEREQYKENLILLDNGDILQGQPTAYYYNYIDTVSPHLCAEMMNYMKYDAGNMGNHDVETGRAVFDRWINTCDFPVLGANIIDISTGEPHLPPYKVMERDGVKIVILGMITPAIPAWLSENLWKGLRFDDMEETARKWMKIIREKENPDLMIGLFHAGQEAFKMSGKYNENASLSVAKNVPGFDIVLMGHDHARECKKVMNVAGDSVLVIDPASNGIVLSNIDVTLKLKDGKVRSKDIKGVLTETKDYGISEDFMKNFAPQYDTVRNFVSK”, the protein production entry is listed as “failed”.

On to “MTSVTDRSAHSAERSTEHTIDIHTTAGKLAELHKRREESLHPVGEDAVEKVHAKGKLTARERIYALLDEDSFVELDALAKHRSTNFNLGEKRPLGDGVVTGYGTIDGRDVCIFSQDATVFGGSLGEVYGEKIVKVQELAIKTGRPLIGINDGAGARIQEGVVSLGLYSRIFRNNILASGVIPQISLIMGAAAGGHVYSPALTDFVIMVDQTSQMFITGPDVIKTVTGEEVTMEELGGAHTHMAKSGTAHYAASGEQDAFDYVRELLSYLPPNNSTDAPRYQAAAPTGPIEENLTDEDLELDTLIPDSPNQPYDMHEVITRLLDDEFLEIQAGYAQNIVVGFGRIDGRPVGIVANQPTHFAGCLDINASEKAARFVRTCDCFNIPIVMLVDVPGFLPGTDQEYNGIIRRGAKLLYAYGEATVPKITVITRKAYGGAYCVMGSKDMGCDVNLAWPTAQIAVMGASGAVGFVYRQQLAEAAANGEDIDKLRLRLQQEYEDTLVNPYVAAERGYVDAVIPPSHTRGYIGTALRLLERKIAQLPPKKHGNVPL”, for which the protein production result is “not failed”.
